B1: SURP and G-patch domain-containing protein 1 (Homo sapiens), Q8IWZ8 (parent)
chain: MSLKMDNRDVAGKANRWFGVAPPKSGKMNMNILHQEELIAQKKREIEAKMEQKAKQNQVASPQPPHPGEITNAHNSSCISNKFANDGSFLQQFLKLQKAQTSTDAPTSAPSAPPSTPTPSAGKRSLLISRRTGLGLASLPGPVKSYSHAKQLPVAHRPSVFQSPDEDEEEDYEQWLEIKVSPPEGAETRKVIEKLARFVAEGGPELEKVAMEDYKDNPAFAFLHDKNSREFLYYRKKVAEIRKEAQKSQAASQKVSPPEDEEVKNLAEKLARFIADGGPEVETIALQNNRENQAFSFLYEPNSQGYKYYRQKLEEFRKAKASSTGSFTAPDPGLKRKSPPEALSGSLPPATTCPASSTPAPTIIPAPAAPGKPASAATVKRKRKSRWGPEEDKVELPPAELVQRDVDASPSPLSVQDLKGLGYEKGKPVGLVGVTELSDAQKKQLKEQQEMQQMYDMIMQHKRAMQDMQLLWEKAVQQHQHGYDSDEEVDSELGTWEHQLRRMEMDKTREWAEQLTKMGRGKHFIGDFLPPDELEKFMETFKALKEGREPDYSEYKEFKLTVENIGYQMLMKMGWKEGEGLGSEGQGIKNPVNKGTTTVDGAGFGIDRPAELSKEDDEYEAFRKRMMLAYRFRPNPLNNPRRPYY
B2: Splicing factor 3B subunit 1 (Homo sapiens), O75533 (parent)
chain: MAKIAKTHEDIEAQIREIQGKKAALDEAQGVGLDSTGYYDQEIYGGSDSRFAGYVTSIAATELEDDDDDYSSSTSLLGQKKPGYHAPVALLNDIPQSTEQYDPFAEHRPPKIADREDEYKKHRRTMIISPERLDPFADGGKTPDPKMNARTYMDVMREQHLTKEEREIRQQLAEKAKAGELKVVNGAAASQPPSKRKRRWDQTADQTPGATPKKLSSWDQAETPGHTPSLRWDETPGRAKGSETPGATPGSKIWDPTPSHTPAGAATPGRGDTPGHATPGHGGATSSARKNRWDETPKTERDTPGHGSGWAETPRTDRGGDSIGETPTPGASKRKSRWDETPASQMGGSTPVLTPGKTPIGTPAMNMATPTPGHIMSMTPEQLQAWRWEREIDERNRPLSDEELDAMFPEGYKVLPPPAGYVPIRTPARKLTATPTPLGGMTGFHMQTEDRTMKSVNDQPSGNLPFLKPDDIQYFDKLLVDVDESTLSPEEQKERKIMKLLLKIKNGTPPMRKAALRQITDKAREFGAGPLFNQILPLLMSPTLEDQERHLLVKVIDRILYKLDDLVRPYVHKILVVIEPLLIDEDYYARVEGREIISNLAKAAGLATMISTMRPDIDNMDEYVRNTTARAFAVVASALGIPSLLPFLKAVCKSKKSWQARHTGIKIVQQIAILMGCAILPHLRSLVEIIEHGLVDEQQKVRTISALAIAALAEAATPYGIESFDSVLKPLWKGIRQHRGKGLAAFLKAIGYLIPLMDAEYANYYTREVMLILIREFQSPDEEMKKIVLKVVKQCCGTDGVEANYIKTEILPPFFKHFWQHRMALDRRNYRQLVDTTVELANKVGAAEIISRIVDDLKDEAEQYRKMVMETIEKIMGNLGAADIDHKLEEQLIDGILYAFQEQTTEDSVMLNGFGTVVNALGKRVKPYLPQICGTVLWRLNNKSAKVRQQAADLISRTAVVMKTCQEEKLMGHLGVVLYEYLGEEYPEVLGSILGALKAIVNVIGMHKMTPPIKDLLPRLTPILKNRHEKVQENCIDLVGRIADRGAEYVSAREWMRICFELLELLKAHKKAIRRATVNTFGYIAKAIGPHDVLATLLNNLKVQERQNRVCTTVAIAIVAETCSPFTVLPALMNEYRVPELNVQNGVLKSLSFLFEYIGEMGKDYIYAVTPLLEDALMDRDLVHRQTASAVVQHMSLGVYGFGCEDSLNHLLNYVWPNVFETSPHVIQAVMGALEGLRVAIGPCRMLQYCLQGLFHPARKVRDVYWKIYNSIYIGSQDALIAHYPRIYNDDKNTYIRYELDYIL
partner: B1 chain

Variants of: B1
Conditions: with U2AF2, P26368
Sequence of U2AF2, P26368 (P26368 whole entry): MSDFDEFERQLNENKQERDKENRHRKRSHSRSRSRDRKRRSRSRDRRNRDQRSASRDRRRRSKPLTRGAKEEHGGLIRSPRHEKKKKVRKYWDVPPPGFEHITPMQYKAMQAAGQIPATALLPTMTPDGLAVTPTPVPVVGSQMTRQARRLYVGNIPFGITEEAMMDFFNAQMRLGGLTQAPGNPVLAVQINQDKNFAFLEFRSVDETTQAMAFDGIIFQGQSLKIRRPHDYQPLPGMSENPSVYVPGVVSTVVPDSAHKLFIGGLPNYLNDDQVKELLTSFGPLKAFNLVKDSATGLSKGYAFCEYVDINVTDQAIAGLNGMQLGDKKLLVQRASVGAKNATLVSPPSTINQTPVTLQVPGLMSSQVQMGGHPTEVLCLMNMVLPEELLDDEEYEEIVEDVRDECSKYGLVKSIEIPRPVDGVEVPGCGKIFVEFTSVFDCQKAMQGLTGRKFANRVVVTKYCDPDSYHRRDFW

effect of a mutation on the interaction | Variant
disrupting interaction strength | W387A

Variants of: B2
Conditions: with sugp1_human SUGP1, Q8IWZ8

Variant | effect of a mutation on the interaction
E622D | disrupting interaction strength
H662Q | disrupting interaction strength
K700E | disrupting interaction strength

Results, then the variant that gave them:

effect of a mutation on the interaction | Variant
decreasing interaction strength | K666N
disrupting interaction strength | R625C

Variants of: B2
Conditions: with sugp1_human SUGP1, Q8IWZ8
Remark: another data set of the same source

effect of a mutation on the interaction | Variant
decreasing interaction strength | K700E

Source: IntAct's records for PubMed 31474574
